Target: GmMYB176-YFP (soybean (Glycine max))
Assay: FRET or BRET; FRET by acceptor bleaching, CFP as donor and YFP as acceptor, co-expressed in N. benthamiana leaf epidermal cells; average of multiple samples (n > 15)

FRET efficiency: 23.8%
Substance: GmCYP1-CFP (from UniProt Q8W171 1-172) (natural protein)

Reference: paper PMC5225424
